This passage reports % Adherence Inhibition of S. aureus 8325.4 to fibronectin-coated PMMA coverslips (at 100 µg/ml D1-D4 (709-886)) and % Adherence Inhibition of S. aureus J2385 to fibronectin-coated PMMA coverslips (at 100 µg/ml D1-D4 (709-886)) results from patent US6054572.

This assay has as its target human fibronectin purified from a human plasma fraction on Gelatin Sepharose (human) (UniProt P02751).

As to “D1-D4 (709-886) polypeptide of the fibronectin binding protein of Staphylococcus aureus J2385, expressed from pBROC 520 in E. coli BL21 (DE3)”, the % Adherence Inhibition of S. aureus 8325.4 to fibronectin-coated PMMA coverslips (at 100 µg/ml D1-D4 (709-886)) was 97.5% and the % Adherence Inhibition of S. aureus J2385 to fibronectin-coated PMMA coverslips (at 100 µg/ml D1-D4 (709-886)) worked out at 78.4%.
